This passage reports binding result and Kd results from publication PMC12057666 (Science Advances, 2025).

Holding throughout (conditions): both partners purified
Assay [1] concerns the target T1, HEV-P, wild-type HEV-CA P domain protein, ORF2(455-601), genotype 3, 2712 strain (hepatitis E virus genotype 3, strain …, UniProt Q9YLQ9).
T1 construct: source: Freestyle 293-F, transient transfection (PEI), purified from culture supernatant (Ni Sepharose Excel)
The assay is described as follows: ELISA; plates coated overnight with 125 ng per well of purified protein; serial dilutions of monoclonal antibodies in PBS, 2 hours; HRP anti-human IgG. A general note: An ELISA detects its analyte on a solid surface through an enzyme-linked reagent.

In assay [2] the target is T2, genotype 1d HEV-CA protein (1d Morocco) (Hepatitis E virus genotype 1d, Morocco, …, UniProt Q9W7W9, strain).
T2 construct: hepatitis E virus capsid protein (ORF2), genotype 1d, strain Morocco; the 3-2712 HEV-CA construct of the same list is ORF2 126-601; Igk leader at the N terminus of the construct; also called genotype 1 HEV-CA; source: Freestyle 293-F, transient transfection (PEI), purified from culture supernatant (Ni Sepharose Excel)
Briefly: SPR; Biacore 2000; purified IgG (10 μg/ml) captured on Protein G sensor chip; capsid proteins injected at 5 or 10 to 0.312 nM; HBS-EP (10 mM Hepes pH 7.2, 150 mM NaCl, 3 mM EDTA, 0.005% Tween 20); 22°C; Langmuir model, global analysis; apparent affinity. On the technique in general: In SPR one partner is held on a chip, and binding of the other changes the refractive index at the surface.

Assay [3] concerns the target T3, HEV-C1 capsid protein (Rocahepevirus, rat hepatitis E virus) (Rocahepevirus (rat hepatitis E virus …, UniProt E0XL23, strain)).
T3 construct: capsid protein (ORF2) of Rocahepevirus HEV-C1 (rat hepatitis E virus); Igk leader at the N terminus of the construct; also called HEV-C1 protein; Rocahepevirus CA; source: Freestyle 293-F, transient transfection (PEI), purified from culture supernatant (Ni Sepharose Excel)
Described as above.

The target of assay [4] is T4, genotype 3a HEV-CA protein (3a Meng) (Hepatitis E virus genotype 3a, swine …, UniProt Q6J8F7, strain).
T4 construct: also called genotype 3 HEV-CA; source: Freestyle 293-F, transient transfection (PEI), purified from culture supernatant (Ni Sepharose Excel)
The description is as above.

T1 sequence (Q9YLQ9 455-601): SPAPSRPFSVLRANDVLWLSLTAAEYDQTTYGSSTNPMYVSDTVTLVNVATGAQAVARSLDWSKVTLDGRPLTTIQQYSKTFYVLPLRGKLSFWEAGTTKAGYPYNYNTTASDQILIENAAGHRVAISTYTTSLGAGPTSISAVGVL

B1: Es4.431 IgG antibody (antibody, V domains shown)
VH: EVQLLESGGGLVQPGGSLRLSCTASGFTFDTHVMSWVRQGPGKGLEWVSSISAASGTYYAGSVKGRFTISRDNSKNTLFLHMNSLRVEDTGVYYCANVVHRCTTNTCFRGADNWGQGTLVTVSS
VL: PSSLSASVGDRVTITCRASQSVDTYLNWYQQKPGETPKLLIYAASTLQSGVPSRFSGSGSGTTFTLTISSLQPEDFATYYCQQSYTTLMYTFGQGTKLEIK
notes: source: Freestyle 293-F, transient cotransfection, purified (Protein G Sepharose 4 Fast Flow)
Turning to B1, the binding result in assay [1] is listed as “binds”.

B2: Es5.127 IgG antibody (antibody, V domains shown)
VH: EVQLVQSGAEVKKPGESLKISCKGSGYRSGYSFSSYWIGWVRQRPGKGLEWMGIIQPGDSDTTYSPSFQGQVTISADKSINTAYLQWSSLKASDTAIYYCARVRGSLKVPAAVPFDPWGQGTLVTVSS
VL: QSVLTQPPSVSAAPGQKVTISCSGSSSNIGNNYVSWYQQFPGIAPKLLIYDNNKRPSGIPDRFSGSKSGTSATLGITGLQTGDEADYYCGTWDSSLSDVVFGGGTKLTVL
notes: as for B1
Take B2: the binding result in assay [2] is on record as “binds”. The Kd in assay [3] amounted to 1.6 nM; in assay [4], 0.41 nM.

B3: Es1.327 IgG antibody (antibody, V domains shown)
VH: QVQLVQSGGEVKKPGASVRVSCQTSGYSFTHYSITWVRQAPGQGLEWMGWITTYNGKTSYAQKFQDRVTMTADTSSRTAYVELRSLRSDDTAVYYCVRVWTGYGTNRGDYWGQGTLVTVSS
VL: PSSLYASVGDRVTITCRASQSINTFLNWYQQKPGNAPKLLIHAASTLESGVPSRFSGSGSGTDFTLTISSLQPEDFATYYCQQSDNNFALTFGGGTKVEIR
notes: as for B1
On to B3, for which the binding result in assay [1] is recorded as “binds”.
